From US20210032351A1 (XDCEXPLORER SHANGHAI, published 2021)
Like-named read-outs stand apart in the source and are kept apart here.

Legend:
[1] = target: T1, human EGFRvIII-hFc protein (human, UniProt P00533 25-645); assay: ELISA, coated EGFRvIII-hFc, antibody 0.001 nM
T1 construct: extracellular domain; made in HEK293 cells, purified on protein A; also called immunogen A; hFc-tagged EGFRvIII protein; not shown: human IgG Fc fragment (hFc) of the pCpC vector
In short: (§1)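 Read-out is A450 nm after TMB development (30 min, room temperature) stopped with 1.0N HCl. Plates carried EGFRvIII-hFc at 1.0 μg/mL and were incubated with purified antibody, then HRP secondary, each 2 h at 37° C.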

[2] = target: T1, human EGFRvIII-hFc protein; assay: ELISA, coated EGFRvIII-hFc, antibody 0.01 nM
In short: as §1

[3] = target: T1, human EGFRvIII-hFc protein; assay: ELISA, coated EGFRvIII-hFc, antibody 0.0001 nM
In short: as §1

[4] = target: T2, human EGFR protein (wild-type), on cells (human, UniProt P00533 25-1210); assay: FACS on A431 cells
T2 construct: whole, on cells; transfected on CHO-K1 cells; endogenous on the human cell lines; the cell is named under assay; also called wild-type EGFR; hEGFR
Experimental: (§2) The cells are washed twice with the HBSS buffer and are counted, and then the cells are diluted with the HBSS buffer to 2×10⁶ cells/ml, added with 1% goat serum blocking solution, with the percentage being the mass percentage, and incubated on ice for 30 minutes, and then centrifugally washed twice with the HBSS buffer. The collected cells are suspended to 2×10⁶ cells/mL with an FACS buffer (HBSS+1% BSA, with the percentage being the mass percentage), added to a 96-well FACS reaction plate at 100 μL/well, then added with 100 μL/well of the purified EGFRvIII antibody (samples to be tested) obtained in example 2, and incubated on ice for 2 hours. The plate is centrifugally washed twice with the FACS buffer, added with 100 μL/well of a fluorescence (Alexa 488) labeled secondary antibody (purchased from Invitrogen), and then incubated on ice for 1 hour. […] The cells are suspended in 100 μL of the FACS buffer, and the results are detected and analyzed by FACS (FACS Calibur, purchased from BD). Data analysis is performed by using the software (CellQuest) to obtain the mean fluorescence intensity (MFI) of the cells. Data is further analyzed by using the software (GraphPad Prism5) to perform data fitting and calculate EC50. […]

[5] = target: T1, human EGFRvIII-hFc protein; assay: ELISA, coated EGFRvIII-hFc, antibody 10 nM
In short: as §1

[6] = target: T1, human EGFRvIII-hFc protein; assay: ELISA, plate coated with human EGFRvIII-hFc, HRP secondary antibody, absorbance at 450 nm
Experimental: The purified immunogen A (EGFRvIII-hFc) obtained in example 1 (for the preparation method, see step (I) in example 1) is diluted with PBS to a final concentration of 1.0 μg/mL, and then added to a 96-well ELISA plate at 100 μl/well. The plate is sealed with a plastic film and incubated at 4° C. overnight. The next day, the plate is washed twice with a plate washing solution [PBS+0.01% (v/v) Tween20], and added with a blocking solution [PBS+0.01% (v/v) Tween20+1% (w/w) BSA] for blocking 2 hours at room temperature. The blocking solution is discarded, and the purified EGFRvIII antibody obtained in example 2 is added at 100 μl/well. The plate is incubated for 2 hours at 37° C., and then washed 3 times with the plate washing solution [PBS+0.01% (v/v) Tween20]. The plate is added with an HRP (horseradish peroxidase) labeled secondary antibody (purchased from Sigma), incubated at 37° C. for 2 hours, and then washed 3 times with the plate washing solution [PBS+0.01% (v/v) Tween20]. The plate is added with 100 μl of TMB substrate/well, incubated for 30 minutes at room temperature, and then added with 100 μl of stopping solution (1.0N HCl)/well. A450 nm value is read using an ELISA plate reader (SpectraMax 384plus, purchased from Molecular Device), and the results are shown in FIG. 6 and table 10.

[7] = target: T1, human EGFRvIII-hFc protein; assay: ELISA, coated EGFRvIII-hFc, antibody 0.1 nM
In short: as §1

[8] = target: T1, human EGFRvIII-hFc protein; assay: ELISA, coated EGFRvIII-hFc, antibody 1 nM
In short: as §1

[9] = target: T1, human EGFRvIII-hFc protein; assay: ELISA, coated EGFRvIII-hFc, antibody 100 nM
In short: as §1

[10] = target: T2, human EGFR protein (wild-type), on cells; assay: FACS on HFF-1, HFL-I, QSG-7701, HEEC, HEB, WPMY-1 and MCF-10A cells
[11] = target: T1, human EGFRvIII-hFc protein; assay: ELISA, plate coated with human EGFRvIII-hFc, HRP secondary antibody, absorbance at 450 nm; remark: listed apart in the source
[12] = target: T3, human wild-type EGFR protein on the cell surface (human, UniProt P00533 25-1210); assay: FACS on A431 cells
T3 construct: whole, on cells; Endogenous on A431, HEB, U87MG cells and normal human primary hepatocytes; transfected on CHOk1-EGFR cells; The cell is named under assay; also called A431; HEB
Experimental: as §2

[13] = target: T4, human EGFRvIII-hFc protein (human, UniProt P00533 25-645); assay: ELISA, EGFRvIII-hFc coated
T4 construct: extracellular domain; also called immunogen A; hFc-tagged EGFRvIII protein; not shown: human IgG Fc fragment (hFc) of the pCpC vector

[14] = target: T5, human EGFRvIII protein on the cell surface (human, UniProt P00533 25-1210); assay: FACS on U87MG-hEGFRvIII cells
T5 construct: whole, on cells; the cell line is named under assay; also called hEGFRvIII; U87MG-hEGFRvIII

B1: Murine anti-7E5 (antibody, V domains shown)
VH: EIQLQQSGPELVKPGASVKVSCKASGYSFTDYNMYWVKQSHGKSLEWIGYVDPSNGGTNYNQKFKGKATLTVDKSSSTAFMHLNSLTSEDSAVYYCARGFFDYWGQGTTLTVSS
VL: DIVMTQSPSSLTVTAGEKVTMSCKSSQSLLNSGNQKNYLTWYQQKPGQPPKLLIYWASNRESGVPDRFTGSGSGKDFTLTISSVQAEDLAVYYCQNDYRYPVTFGAGTKLELK
notes: murine hybridoma antibody; also called 7E5-2A9; murine anti-7E5-2
Binder B1 has an OD450 nm [1] of 0.17, an OD450 nm [2] of 0.35 and an OD450 nm [3] of 0.15. For the same binder, the binding result [4] was “no binding”, the OD450 nm [5] was 3.14 and the “EC50 (read off the curve)” value [6] was ~0.02 nM. The OD450 nm [7] was 1.68, the OD450 nm [8] was 3.18 and the OD450 nm [9] was 3.36.

B2: Chimeric antibody 7E5 (antibody, human IgG1, V domains shown)
VH: B1 VH
VL: B1 VL
notes: also called 7E5-2A9 (chimeric)
In the case of B2, the binding result [10] is reported as “no binding” and the “EC50 (read off the curve)” value [11] is reported as ~0.03 nM.

B3: Chimeric antibody 7E5 (antibody, human IgG1, V domains shown)
VH: B1 VH
VL: B1 VL
notes: also called clone 7E5-2A9
B3 was tested, and the binding result [12] was “no binding”, the “OD450 nm at 0.0001 nM antibody” value [13] was 0.09 OD450 and the “OD450 nm at 0.001 nM antibody” value [13] was 0.08 OD450. The “OD450 nm at 0.01 nM antibody” value [13] was 0.19 OD450, the “OD450 nm at 0.1 nM antibody” value [13] was 1.18 OD450 and the “OD450 nm at 1 nM antibody” value [13] was 3.45 OD450. The “OD450 nm at 10 nM antibody” value [13] was 3.63 OD450, the “OD450 nm at 100 nM antibody” value [13] was 3.6 OD450 and the EC50 [14] was 1.9 nM.
